These results are taken from the nanobody polyreactivity screen of Harvey et al. (2022).

The nature of the series: yeast display, Sf9 membrane polyspecificity reagent, FACS + sequencing; frameworks hold sequencing errors. Put shortly:
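Nanobodies came from a synthetic yeast display library in Saccharomyces cerevisiae BJ5465, induced with galactose for 36–48 hours and stained for 1 hour at 4 °C with 10% biotinylated, detergent-solubilized Sf9 membrane reagent. Cells were enriched on streptavidin microbeads and then FACS-sorted, with low and high (top ~1%) gates set on anti-HA fluorescence for expression and streptavidin fluorescence for reagent binding. Each polyreactivity label reflects the gate a clone came from. Genes were amplified by colony PCR, sequenced by MiSeq 2 × 250 and filtered by CDR length.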
Take “QVQLVESGGGLVQAGGSLRLSCAASGFIFWYYAIGWYRQAPGKERELVADISSGGSTNYADSVKGRFTISRDNAKNTVYLQMNSLKPEDTAVYYCADDTFRRDDYWGQGTQVTVSS”: the “polyreactivity (PSR sort gate)” value was “low polyreactivity”. Consider “QVQLVESGGGLVQAGGSLRLSCAASGFIFWYYAMGWYRQAPGKERELVAAISSRGGSTYYADSVKGRFTISRDNAKNTVYLQMNSLKPEDTAVYYCAATGYTGYSRYYYWGQGTQVTVSS”, for which the “polyreactivity (PSR sort gate)” value is reported as “high polyreactivity”.

As for “QVQLVESGGGLVQAGGSLRLSCAASGFIFWYYDMGWYRQAPGKERELVAAISDRGGSTSYADSVKGRFTISRDNAKNTVYLQMNSLKPEDTAVYSCAVDRSLSPFAYDYWGQGTQVTVSS”, the “polyreactivity (PSR sort gate)” value is “low polyreactivity”. For the sequence “QVQLVESGGGLVQAGGSLRLSCAASGFIFYDYALGWYRQAPGKERELVAAITQRGGSTYYADSVKGRFPISRDNAKKTVYLQMTSLKPVDTAVYSCAAKDAPYWFPITHVQPVDMDYWGQGTQVTVSS”, the “polyreactivity (PSR sort gate)” value is “high polyreactivity”. Turning to “QVQLVESGGGLVQAGGSLRLSCAASGFIFYDYAMGWYRQAPGKERELVAVITRGGSTYYADSVKGRFTISRDNAKNTVYLQMNSLKPEDTAVYYCAAYWFTPGFTFDYWGQGTQVTVSS”, the “polyreactivity (PSR sort gate)” value was “low polyreactivity”. Turning to “QVQLVESGGGLVQAGGSLRLSCAASGFIFYEYAMGWYRQSPGKERELVAGISWSGDSTYYADSVKGRFTISRDNAKNTVYLQMNRLKPEDTAVYYCAADPYYQGYDYWGQGTQVTVSS”, the “polyreactivity (PSR sort gate)” value is recorded as “low polyreactivity”.

On to “QVQLVESGGGLVQAGGSLRLSCAASGFIFYGYAKGWYRQAPGKERELVAGISTGGSKNYADSVKGRFTISRDNAKNTVYVQMNSLKPEDTAVDYCAVVDVEEHVGHWGQGTQVTVSS”, for which the “polyreactivity (PSR sort gate)” value is reported as “low polyreactivity”. As for “QVQLVESGGGLVQAGGSLRLSCAASGFIFYGYAMGWYRQAPGKERELVAGISTVGSTNYADSVKGRFTISRDNAKNTVYLQMNSLKPEDSAVYYCAVVDVEDHVGHWGQGTQVTVSS”, the “polyreactivity (PSR sort gate)” value is “low polyreactivity”. To “QVQLVESGGGLVQAGGSLRLSCAASGFIFYHNAMGWYRQAPGKERELVAVISSGGSTYYADSVKGRFTISRDNAKNTVYLQMNSLKPEDTAVYYCAALYYGWSGSYAMDYWGQGTQVTVSS” belongs “high polyreactivity”; to “QVQLVESGGGLVQAGGSLRLSCAASGFIFYHYAMGRYRQAPGKERELVAAISWNGGRTYYADSVKGRFTISRDNAKNTVYLQMNSLKPEDTAVYYCAAYWTRVERVYWGQGTQVTVSS”, “high polyreactivity”; to “QVQLVESGGGLVQAGGSLRLSCAASGFIFYHYAMGWYRQAPGKRRELVAAISYSGGSTYYADSVKGRFTISRDNGKNTVYLQMNSLKPEDPAVYYCNAVYHTRLYTLSTFDYWGQGTQVTVSS”, “high polyreactivity”. In the case of “QVQLVESGGGLVQAGGSLRLSCAASGFIFYIYPMGWYRQAPGKERELLAAISWNGGSTYYADSVKGRFTISRDNAKNTVYLQMNSLNPEDTAVFYCATLARYRYGTGRFDYWGQGTQVTVSS”, the “polyreactivity (PSR sort gate)” value is reported as “high polyreactivity”.

Consider “QVQLVESGGGLVQAGGSLRLSCAASGFIFYKYAMGWYRQAPGKEREFVAAISSRGSRTYYADSVKGRFTISRDNAKNTVYLQMNSLKPEDTAVYYCAAGYWARLYDYDYWGQGTQVTVSS”, for which the “polyreactivity (PSR sort gate)” value is recorded as “high polyreactivity”.

For the sequence “QVQLVESGGGLVQAGGSLRLSCAASGFIFYKYAMGWYRQAPGKERELVAAITARGGSTYYADSVKGRFTISRDNAKNTVYLQMNSLKPEDTAVYYCAADTYFSGAGGQAYQYDYWGQGTQVTVSS”, the “polyreactivity (PSR sort gate)” value was “high polyreactivity”. To “QVQLVESGGGLVQAGGSLRLSCAASGFIFYKYAMGWYRQAPGKERELVAAITWRGGRTNYADSVKGRFTISRDNAKNTVYLQMNSLKPEDTAVYYCAADPWYSSYYYSYEYWGQGTQVTVSS” belongs “high polyreactivity”. As to “QVQLVESGGGLVQAGGSLRLSCAASGFIFYKYAMGWYRQAPGKERELVAGITWNVGSTYYADSVKGRFTISRDNAKNTVYLQMNSMKPEDTAVYYCAARHSYLGGTISLLYDYWGQGTQVTVSS”, the “polyreactivity (PSR sort gate)” value is “low polyreactivity”. The value for “QVQLVESGGGLVQAGGSLRLSCAASGFIFYLYAMGWYRQAPGKERELVASINVSGASTRYADSVKGRFTISRDNAKNTDYLQMNSLKPEDTAVYYCAAPSRYDYWGQGTQVTVSS” was “low polyreactivity”; that for “QVQLVESGGGLVQAGGSLRLSCAASGFIFYLYTMGWYRQAPGKERELVAAITGGGGTYYADSVKGRFTISRDNAKNTVYLQMNSLKPEDTAVYYCAAEYYLYLWDEYDYWGQGTQVTVSS” was “high polyreactivity”; that for “QVQLVESGGGLVQAGGSLRLSCAASGFIFYPYAMAWYRQAPGKERELVAVITSGGRTYYADSVKGRFTISRDNAKNTVYLQMNSLKPEDTAVYYCAARYGRIHWKANWPEYGYWGQGTQVTVSS” was “low polyreactivity”. Regarding “QVQLVESGGGLVQAGGSLRLSCAASGFIFYPYAMGWYRQAPGKERELVAAITWSGSRTYYADSVKGRFTISRDNAKHTVYLQMNSLKPEDTAVYYCNKYPQPTAYDYWGQGTQVTVSS”, the “polyreactivity (PSR sort gate)” value is “high polyreactivity”. On to “QVQLVESGGGLVQAGGSLRLSCAASGFIFYRNTMGWYRQAPGKEREFVAAIRWRGGSTYYADSVKGRFTISRDNAKNTVYLQMNSLKPEDTAVYYCAAGTPWSVEGSYVTYPWNRYYYWGQGTQVTVSS”, for which the “polyreactivity (PSR sort gate)” value is listed as “high polyreactivity”. For the sequence “QVQLVESGGGLVQAGGSLRLSCAASGFIFYRYAMGWYRLAPGKERELVAAISSSGGSTYYADSVKGRFTISRDYAKYSVYLQMNSLKPEDTAVYYCAVDYWGQGTQVTVSS”, the “polyreactivity (PSR sort gate)” value is “high polyreactivity”. As to “QVQLVESGGGLVQAGGSLRLSCAASGFIFYRYAMGWYRQAPGKEREFVAAITRSAGGTYYADSVKGRFTISRDNEKNTVYLQMNSLKPEDTAVYYCAAVYRSGSRYYLGWYNYWGQGTQVTVSS”, the “polyreactivity (PSR sort gate)” value is on record as “high polyreactivity”. As to “QVQLVESGGGLVQAGGSLRLSCAASGFIFYRYAMGWYRQAPGKERELVAAINWSGGGTYYADSVKGRFTISRDNAKNTVYLQMNSLKPEDTAVYYCAAGRSFRGSYWYEYWGQGTQVTVSS”, the “polyreactivity (PSR sort gate)” value is listed as “high polyreactivity”. With “QVQLVESGGGLVQAGGSLRLSCAASGFIFYRYAMGWYRQAPGKERELVAAISSSGGSTYYADSVKGRFTISRDNAKNTVYLQMNSLKPEDTAVYYCAAEPSGKRSKFYYLGQGTQVTVSS”, the “polyreactivity (PSR sort gate)” value is reported as “high polyreactivity”. To “QVQLVESGGGLVQAGGSLRLSCAASGFIFYRYAMGWYRQAPGKERELVAAITGSGARTYYADSVKGRFTISRDNAKNTVYLQMNSLKPEDTAVYYCAARYILSKYGSGVRYNYWGQGTQVTVSS” belongs “high polyreactivity”. On to “QVQLVESGGGLVQAGGSLRLSCAASGFIFYSNAMGWYRQAPGKERELVAGISRGGSTYYADSVKGRFTISRDNAKNTVYLQMNRLKPEDTAVYYCAAKISLGDDYWGQGTQVTVSS”, for which the “polyreactivity (PSR sort gate)” value is given as “low polyreactivity”. For “QVQLVESGGGLVQAGGSLRLSCAASGFIFYSNPMGWYRQAPGKERELVAAITSGGSTYYADSVKGRFTISRDNAKNTVYLQMNSLKPEETAVYYCAAVVRVYFRGFTSYDYWGQGTQVTVSS”, the “polyreactivity (PSR sort gate)” value is reported as “high polyreactivity”. “QVQLVESGGGLVQAGGSLRLSCAASGFIFYTYAMGWSRLAPGKEREFVASISKSGGRTYYADSVKRRFTMSRDNAKNTVYLQMISLKPEVTAVYYCNAYRSTHFFSYRDDYWGQGTQVTVSS”: the “polyreactivity (PSR sort gate)” value was “high polyreactivity”. Take “QVQLVESGGGLVQAGGSLRLSCAASGFIFYVNDMGWYRQAPGKERELVADISGGTSTNYADSVKGRFTMSRDNAKNTVYLQMNSLNPEDTAVYYCNKYVAYDYWGQGTQVTVSS”: the “polyreactivity (PSR sort gate)” value was “low polyreactivity”. For the sequence “QVQLVESGGGLVQAGGSLRLSCAASGFIFYYAMGWYRPAPGKERELVAAISSGSSTYADSVKGRFTISRDNAKNTVYLQMNSLKPEDTAVYYCATRYSSWYSNRDYDYWGQGTQVTVSS”, the “polyreactivity (PSR sort gate)” value is “low polyreactivity”. For the sequence “QVQLVESGGGLVQAGGSLRLSCAASGFIFYYNAMGWSRQAPGKERELVASISRDCGRTYYADSVKGRFTISRDNAKNTVYLQMNSLKPEDTAVYYCAKKRINSRKYDYWGQGPQVTVSS”, the “polyreactivity (PSR sort gate)” value was “low polyreactivity”.

Consider “QVQLVESGGGLVQAGGSLRLSCAASGFIFYYNAMGWYRQAPGKERELVAAISSSAGSTYYADSVKGRFTISRDNAKNTVYLQMNSLKPEDTAVYYCDGSRPPNTSNTGYGSWGQGTQVTVSS”, for which the “polyreactivity (PSR sort gate)” value was “low polyreactivity”. As to “QVQLVESGGGLVQAGGSLRLSCAASGFIFYYNDMGWYRQAPGKERELVAAISGGVGSTYYADSVKGRFTISRDNAKNTVYLQMNSLKPEDSAVYYCATRRYSLTYGLGYDYWGQGTQVTVSS”, the “polyreactivity (PSR sort gate)” value was “low polyreactivity”. For the sequence “QVQLVESGGGLVQAGGSLRLSCAASGFIFYYNTMGWYRQAPGKERELVAAISSGGRTYYADSVKGRFTISRDNAKNTVYLQMNSLKPEVTAVYYCNVVTYVKYGYWGQGTQVTVSS”, the “polyreactivity (PSR sort gate)” value was “high polyreactivity”. To “QVQLVESGGGLVQAGGSLRLSCAASGFIFYYYAMGWYRQAPGKEREFVAGISRSGGSTYYADSVKGRFTISRDHAKNTVNLLQNSLKTEDTAVYYCNARPLYHFWYYSGEEYGYWGQGTQVTVSS” belongs “high polyreactivity”. Regarding “QVQLVESGGGLVQAGGSLRLSCAASGFIFYYYAMGWYRQAPGKERELVAGITATGGSTYYADSVKGRFTISRDNAKNTVYLQMNSLKPEDTAVYYCARGPSGTPNGNTPYGDNRYNSWGQGTQVTVSS”, the “polyreactivity (PSR sort gate)” value is listed as “low polyreactivity”. In the case of “QVQLVESGGGLVQAGGSLRLSCAASGFIFYYYDMGWYRQAPGKERELVAAITYDGGSTYYADSVKGRFTSSRDNAKNTVYLQMNSLKPEDTAVYYCNAVYGQYYDYWGQGTQVTVSS”, the “polyreactivity (PSR sort gate)” value is on record as “low polyreactivity”. As to “QVQLVESGGGLVQAGGSLRLSCAASGFIFYYYTMGWYRQAPGKEREFVAAISSSGTITYYADSVKGRFTISRDNAKNTVYLQMNSLKPEDTAVYYCNAELYYPYEFWRFSGYDYWGQGTQVTVSS”, the “polyreactivity (PSR sort gate)” value is listed as “low polyreactivity”. Consider “QVQLVESGGGLVQAGGSLRLSCAASGFIFYYYTMVWYRQAPGKERELVAAIRTGGGTNYADSVKGRFTISRDNAKNTVYLQRNSLKPEDTAVYYCAKGRQGVSYLTGTYGGRDYWGQGTQVTVSS”, for which the “polyreactivity (PSR sort gate)” value is “low polyreactivity”.

In the case of “QVQLVESGGGLVQAGGSLRLSCAASGFIIDEYAMGWYRQAPGKERELVAAISWSGSRTYYADSVKGRFTISRDNAKNTVYLQMNSLKPEDTAVYYCAKVTGVGAGRRIYWGQGTQVTVSS”, the “polyreactivity (PSR sort gate)” value is “low polyreactivity”.
